The term stoichiometry N denotes a count of units in the complex or per binding partner.

The series concerns the molecule itself. Briefly: cross-linking + affinity purification with mass spectrometry.

B1: stomatin (natural protein, human (endogenous in erythrocytes), UniProt P27105 1-288, looked up)
chain: MAEKRHTRDSEAQRLPDSFKDSPSKGLGPCGWILVAFSFLFTVITFPISIWMCIKIIKEYERAIIFRLGRILQGGAKGPGLFFILPCTDSFIKVDMRTISFDIPPQEILTKDSVTISVDGVVYYRVQNATLAVANITNADSATRLLAQTTLRNVLGTKNLSQILSDREEIAHNMQSTLDDATDAWGIKVERVEIKDVKLPVQLQRAMAAEAEASREARAKVIAAEGEMNASRALKEASMVITESPAALQLRYLQTLTTIAAEKNSTIVFPLPIDMLQGIIGAKHSHLG
As for B1, the “stoichiometry N” value was determined as 2.

Values taken from paper PMC3790964 (Biochimica et Biophysica Acta, 2013).
